Reference: patent publication US20240352134A1 (NANJING IMMUNOPHAGE BIOTECH, published 2024)

Key:
human CCR8 [1] = target: T1, human CCR8 (human, UniProt P51685 1-355); test: FACS on 293F-CCR8 cells
T1 construct: whole, on cells; also called hCCR8; C-C Motif Chemokine Receptor 8
Method: The affinity of anti-CCR8 antibodies was evaluated by FACS. […] Affinity analyses were generally carried out as follows. […] The test antibodies were diluted with PBS/0.5 BSA (1:3 series dilution from 225 μg/mL to 0.00381 μg/mL). The transfected cells along with parent non-transfected cells were distributed into 96-well round-bottom polystyrene plates and incubated with the diluted antibodies on ice for 20-30 minutes. Next, the samples were washed with PBS/0.5 BSA and the cells were centrifuged. The pelleted cell samples were incubated with the second antibody of anti-mouse IgG-FITC-at 1:300 dilution in 100 μL PBS/0.5% BSA on ice for 30 minutes, and then washed with PBS/0.5% BSA, followed by pelleting the cells. The cell pellets were re-suspended in PBS/0.5% BSA for reading, and samples were analyzed using CYTOFLEX (Beckman).

human CCR8 [2] = target: T1, human CCR8; test: cell-based or functional assay
human CCR8 [3] = target: T1, human CCR8; test: FACS on human CCR8-expressing 293F cells
human CCR8 [4] = target: T1, human CCR8; test: FACS on human CCR8-expressing 293F cells; remark: listed apart in the source

T1 sequence (P51685 whole entry): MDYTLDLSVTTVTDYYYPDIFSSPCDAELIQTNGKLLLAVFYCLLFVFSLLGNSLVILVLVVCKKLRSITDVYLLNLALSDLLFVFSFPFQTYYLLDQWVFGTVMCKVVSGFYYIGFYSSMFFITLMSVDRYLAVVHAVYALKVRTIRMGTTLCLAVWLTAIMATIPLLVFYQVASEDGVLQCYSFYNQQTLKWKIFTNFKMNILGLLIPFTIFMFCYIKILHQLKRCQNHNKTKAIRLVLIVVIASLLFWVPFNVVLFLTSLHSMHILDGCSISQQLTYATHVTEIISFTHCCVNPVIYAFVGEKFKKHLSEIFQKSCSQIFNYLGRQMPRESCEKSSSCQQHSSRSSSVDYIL

EC50 (human CCR8 [1]) [nM]	Tango IC50 (human CCR8 [2]) [nM]	EC50 (human CCR8 [3]) [nM]	Binder	other results
0.305	1.87		2P15 (antibody, V domains shown, Mouse hybridoma monoclonal antibody) VH: EVQLVESGGGLVQPKGSLKLSCAASGFSFNAYAMNWVRQAPGKGLEWVARMRSKSNYYATYYADSVKDRFTISRDDSESMLYLQMNNLKTEDTAMYYCVRQTYGSKDYAMDYWGQGTSVTVSS VL: DVVMTQTPLSLPVSLGDQASISCRSSQSLVHSNGNTYFHWYLQKPGQSPKLLIYKVSNRFSGVPDRFSGSGSGTDFTLKISRVEAEDLGVYFCSQSTHVPFTFGSGTKLEIK	
		0.309	3F11hz0 (antibody, V domains shown, same VH and VL as mouse 3F11) VH: EVQLVESGGGLVQPKGSLKLSCAASGFSFNTYAMNWVRQAPGKGLEWVARIRSKSNYYATYYADSVKDRFTISRDDSESMLYLQMNNLKTEDTAMYYCVRGRELGDYYAMDYWGQGTSVTVSS VL: DIVMTQAAPSVPVTPGESVSISCRSSKSLLHSNGNTYLYWFLQRPGQSPQLLIYRMSNLASGVPNRFSGSGSGTAFTLRISRVEAEDVGVYYCMQHLEYPFTFGSGTKLEIK	
4.25	4.08		3C11 (antibody, V domains shown, Mouse hybridoma monoclonal antibody) VH: EFQLQQSGPELVKPGASVKISCKTSGYSFTDYNINWVKQSNGKSLEWIGLINPNHGTTKSNQKFKGKATLTVDQSSSTAYMQLSSLTSEDSAVYYCARHDYDGAYWGQGTLVTVSA VL: DVVMTQTPLSLPVSLGDQASISCRSSQSLIHSNGNTYLHWYLQKPGQSPKLLIYKISNRFSGVPDRFSGSGSGTDFTLKISRVEAEDLGVYFCSQSTRAPWTFGGGTKLEIK	
0.195	1.86		84B4 (antibody, V domains shown, Mouse hybridoma monoclonal antibody) VH: EVQLQQSGPVLVKPGASVKMSCKASGFTITDYYFNWVKQSHGKSLEWIGIINPYNGVARYKQKFKGKATLTVDKSSSTVYLEFSGLTSEDSAVYYCVRFVYGTTYDYAMDYWGQGTSVTVSS VL: DVLMTQTPLSLPVSLGDQASISCRSSQSIVHSNGNTYLEWYVQKPGQSPKLLIYKVSNRFSGVPDRFSGSGSGTDFTLKISRVEAEDLGVYYCFQGSHVPPTFGGGTKLEIK	
		0.451	1G17hz0 (antibody, V domains shown, same VH and VL as mouse 1G17) VH: QVQLQQSGAELVRPGASVTLSCKASGYTFADYEMHWVKQTPVLGLEWIGAIDPETGRTAYNQKFKFKATLTADRSSSTAYMELRSLTSEDSAVYYCTRRAYWGGWGQGTTLTVSS VL: DVVMTQTPLSLPVSLGDQASISCRSSQSLVHSSGNTYLHWYLQKPGQSPKLLIYKVSNRFSGVPDRFSGSGSGTDFTLKISRVEAEDLGVYFCSQSTHVPYTFGGGTKLEIK	
1.29	0.45		3O20 (antibody, V domains shown, Mouse hybridoma monoclonal antibody) VH: EVQLVESGGGLVQPKGSLKLSCATSGFSFNAYAMNWVRQAPGKGLEWVGRIRSKSNNYATYYADSVKGRFTISRDDSKTILYLQMNTLKTEDTAIYYCVRGGYHGNSAYFDVWGTGTSVTVSS VL: DIVMTQAAPSVPVTPGESVSISCRSSKSLLHSNGNTYLYWFLQRPGQSPQLLIYRMSNLASGVPDRFSGSGSGTAFTLRISRVEAEDVGVYYCLQHLEYPFTFGSGTKLEIK	
		0.185	3O20hz0 (antibody, V domains shown, same VH and VL as mouse 3O20) VH: EVQLVESGGGLVQPKGSLKLSCATSGFSFNAYAMNWVRQAPGKGLEWVGRIRSKSNNYATYYADSVKGRFTISRDDSKTILYLQMNTLKTEDTAIYYCVRGGYHGNSAYFDVWGTGTSVTVSS VL: DIVMTQAAPSVPVTPGESVSISCRSSKSLLHSNGNTYLYWFLQRPGQSPQLLIYRMSNLASGVPDRFSGSGSGTAFTLRISRVEAEDVGVYYCLQHLEYPFTFGSGTKLEIK	
6.99	2.01		172E7 (antibody, V domains shown, Mouse hybridoma monoclonal antibody) VH: EVQLQQSGPVLVKPGASVKMSCKASGYTFTDNYMNWMKQSHGKTLEWIGVINPYNGVTRYNQKFRDKATLTVDKSSSTAYMDLNSLTSEDSAVYYCSNSLSWGPGTSLTVSS VL: not shown	
0.302	0.33		170G6 (antibody, V domains shown, Mouse hybridoma monoclonal antibody) VH: EVQLQQSGPVLVKPGASVKMSCKASGYTFTDNYMNWVKQSHGKSLEWIGVINPYNGVTRYNQKFRGKATLTADKSSSTAFMDLNSLTSEDSAVYYCSNSLSWGPGTTLTVSS VL: not shown	
		333	1G17hz2 (antibody, V domains shown, Humanized variant of 1G17) VH: QVQLVQSGAEVKKPGASVKVSCKASGYTFADYEMHWVRQAPGQGLEWIGIIDPETGRTSYAQKFQGRATLTADRSTSTAYMELSSLRSEDTAVYYCTRRAYWGGWGQGTLVTVSS VL: DVVMTQSPLSLPVTLGQPASISCRSSQSLVHSSGNTYLNWYQQRPGQSPRLLIYKVSNRDSGVPDRFSGSGSGTDFTLKISRVEAEDVGVYFCSQSTHVPYTFGQGTKLEIK	
		98.5	3F11hz2 (antibody, V domains shown, Humanized variant of 3F11) VH: EVQLVESGGGLVQPGGSLKLSCAASGFSFNTYAMNWVRQASGKGLEWVGRIRSKSNYYATYYAASVKGRFTISRDDSKNTAYLQMNSLKTEDTAVYYCVRGRELGDYYAMDYWGQGTLVTVSS VL: DIVMTQSPLSLPVTPGEPASISCRSSKSLLHSNGNTYLDWFLQKPGQSPQLLIYRMSNRASGVPDRFSGSGSGTDFTLKISRVEAEDVGVYYCMQHLEYPFTFGQGTKLEIK	
		241	3O20hz3 (antibody, V domains shown, Humanized variant of 3O20) VH: EVQLVESGGGLVQPGGSLKLSCATSGFSFNAYAMHWVRQASGKGLEWVGRIRSKSNNYATAYAASVKGRFTISRDDSKTTLYLQMNSLKTEDTAVYYCVRGGYHGNSAYFDVWGQGTLVTVSS VL: DIVMTQSPLSLPVTPGEPASISCRSSKSLLHSQGNTYLDWFLQKPGQSPQLLIYRMSNRASGVPDRFSGSGSGTDFTLKISRVEAEDVGVYYCLQHLEYPFTFGQGTKLEIK	
			3F11hz1 (antibody, V domains shown, Humanized variant of 3F11) VH: EVQLVESGGGLVQPGGSLKLSCAASGFSFNTYAMHWVRQASGKGLEWVGRIRSKSNYYATYYAASVKGRFTISRDDSKNTAYLQMNSLKTEDTAVYYCTRGRELGDYYAMDYWGQGTLVTVSS VL: DIVMTQSPLSLPVTPGEPASISCRSSKSLLHSNGNTYLDWYLQKPGQSPQLLIYRMSNRASGVPDRFSGSGSGTDFTLKISRVEAEDVGVYYCMQHLEYPFTFGQGTKLEIK	binding result (human CCR8 [4]): binds
		508	3O20hz1 (antibody, V domains shown, Humanized variant of 3O20) VH: EVQLVESGGGLVQPGGSLKLSCAASGFSFNAYAMHWVRQASGKGLEWVGRIRSKSNNYATAYAASVKGRFTISRDDSKNTAYLQMNSLKTEDTAVYYCVRGGYHGNSAYFDVWGQGTLVTVSS VL: DIVMTQSPLSLPVTPGEPASISCRSSKSLLHSNGNTYLDWYLQKPGQSPQLLIYRMSNRASGVPDRFSGSGSGTDFTLKISRVEAEDVGVYYCLQHLEYPFTFGQGTKLEIK	
			3F11hz3 (antibody, V domains shown, Humanized variant of 3F11) VH: EVQLVESGGGLVQPGGSLKLSCAASGFTFSTYAMNWVRQASGKGLEWVGRIRSKSNYYATYYADSVKDRFTISRDDSKNTAYLQMNSLKTEDTAVYYCVRGRELGDYYAMDYWGQGTLVTVSS VL: DIVMTQSPLSLPVTPGEPASISCRSSKSLLHSNGNTYLDWFLQKPGQSPQLLIYRMSNLASGVPDRFSGSGSGTDFTLKISRVEAEDVGVYYCMQHLEYPFTFGQGTKLEIK	binding result (human CCR8 [4]): binds
			3F11hz6 (antibody, V domains shown, Humanized variant of 3F11) VH: EVQLVESGGGLVQPGGSLKLSCAASGFSFNTYAMNWVRQASGKGLEWVGRIRSKSNYYATYYAASVKGRFTISRDDSKNTAYLQMNSLKTEDTAVYYCVRGRELGDYYAMDYWGQGTLVTVSS VL: DIVMTQSPLSLPVTPGEPASISCRSSKSLLHSSGNTYLDWFLQKPGQSPQLLIYRMSNRASGVPDRFSGSGSGTDFTLKISRVEAEDVGVYYCMQHLEYPFTFGQGTKLEIK	binding result (human CCR8 [4]): binds
			3F11hz5 (antibody, V domains shown, Humanized variant of 3F11) VH: EVQLVESGGGLVQPGGSLKLSCAASGFSFNTYAMNWVRQASGKGLEWVGRIRSKSNYYATYYAASVKGRFTISRDDSKNTAYLQMNSLKTEDTAVYYCVRGRELGDYYAMDYWGQGTLVTVSS VL: DIVMTQSPLSLPVTPGEPASISCRSSKSLLHSNGNTYLEWYLQKPGQSPQLLIYRMSNRASGVPDRFSGSGSGTDFTLKISRVEAEDVGVYYCMQHLEYPFTFGQGTKLEIK	binding result (human CCR8 [4]): binds
